# Test results reported in PMC2631452, “Redox biology of Mycobacterium tuberculosis H37Rv: protein-protein interaction between GlgB and WhiB1 involves exchange of thiol-disulfide” (BMC Biochemistry, 2009).
# B1: WhiB1C40S (natural protein)
# chain: MDWRHKAVCRDEDPELFFPVGNSGPALAQIADAKLVCNRSPVTTECLSWALNTGQDSGVWGGMSEDERRALKRRNARTKARTGV
# notes: also called C40S mutant of WhiB1
# Target: T1, purified, oxidized GlgB pre-alkylated with iodoacetamide (Mycobacterium tuberculosis H37Rv, UniProt P9WN45 1-731, free cysteines C95 and C658 alkylated with iodoacetamide; C193 and C617 in an intra-molecular disulfide bond (oxidized))
# T1 construct: GlgB (Rv1326c), Mycobacterium tuberculosis; recombinant, about 85 kDa on SDS-PAGE; also called pre-alkylated oxidized GlgB; pre-alkylated GlgB
# T1 sequence: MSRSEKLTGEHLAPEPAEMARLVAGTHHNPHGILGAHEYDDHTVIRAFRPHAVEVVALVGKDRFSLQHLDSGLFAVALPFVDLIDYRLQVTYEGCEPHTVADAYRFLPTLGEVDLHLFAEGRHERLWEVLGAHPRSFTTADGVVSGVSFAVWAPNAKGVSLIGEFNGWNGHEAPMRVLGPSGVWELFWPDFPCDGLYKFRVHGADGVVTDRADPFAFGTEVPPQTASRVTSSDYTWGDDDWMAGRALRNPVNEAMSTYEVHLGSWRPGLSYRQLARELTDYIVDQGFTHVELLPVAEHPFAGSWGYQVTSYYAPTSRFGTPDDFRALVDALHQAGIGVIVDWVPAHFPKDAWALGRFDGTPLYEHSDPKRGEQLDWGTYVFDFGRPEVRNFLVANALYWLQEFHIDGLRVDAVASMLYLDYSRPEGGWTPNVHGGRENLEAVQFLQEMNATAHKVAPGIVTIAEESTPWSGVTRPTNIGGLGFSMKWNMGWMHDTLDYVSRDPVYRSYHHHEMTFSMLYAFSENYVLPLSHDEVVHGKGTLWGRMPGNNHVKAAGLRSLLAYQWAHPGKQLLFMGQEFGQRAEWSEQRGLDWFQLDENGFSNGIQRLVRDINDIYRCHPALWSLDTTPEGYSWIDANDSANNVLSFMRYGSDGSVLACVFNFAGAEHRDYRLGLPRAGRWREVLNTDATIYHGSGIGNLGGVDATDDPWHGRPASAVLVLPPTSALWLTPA
# Test: […]; 50 mM Tris.HCl pH 8.0, 100 mM NaCl, 0.05% Triton X-100, 2 mM EDTA, 10 mM MgCl2, 25°C; […]
# Settings: both partners purified
binder,measurement,value
B1,binding result,binds
